The supplement of paper PMC7877785
± gives the uncertainty stated by the source.

Experiment: self-splicing fitness, log relative to wild type (ln ratio); higher = more splicing; Tetrahymena group I intron in knt gene, E. coli kanamycin selection, DiMSum; sequences stand for … in CUCUCU…GGAGGGAAAAGUUAUCAGGCAUGCACCUGGUAGCUAGUCUUUAAACCAAUAGAUUGCAUCGGUUUAAAAGGCAAGACCGUCAAAUUGCGGGAAAGGGGUCAACAGCCGUUCAGUACCAAGUCUCAGGGGAAACUUUGAGAUGGCCUUGCAAAGGGUAUGGUAAUAAGCUGACGGACAUGGUCCUAACCACGCAGCCAAGUCCUAAGUCAACAGAUCUUCUGUUGAUAUGGAUGCAGUUCACAGACUAAAUGUCGGUCGGGGAAGAUGUAUUCUUCUCAUAAGAUAUAGUCGGACCUCUCCUUAAUGGGAGCUAGCGGAUGAAGUGAUGCAACACUGGAGCCGCUGGGAACUAAUUUGUAUGCGAAAGUAUAUUGAUUAGUUUUGGAGUACUCGUGGUCG
Outline: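 Colonies from six replicate transformations of E. coli BL21(DE3) were pooled and amplicon-sequenced on an Illumina HiSeq 2500. The library placed an intron with all eight P1ex-region nucleotides randomised inside the knt kanamycin-resistance gene on pET-22b(+), and cells grew overnight at 37°C or 30°C on LB agar with or without 25 μg/mL kanamycin (plus 100 μg/mL carbenicillin, 50 μM IPTG, 0.2% rhamnose). Fitness is the DiMSum error-weighted combination of wild-type-normalised replicate fold changes, kanamycin versus none.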

| Sequence | self-splicing fitness (ln) (37 °C) | self-splicing fitness (ln) (30 °C) |
| --- | --- | --- |
| UGCGAGCAAUAUUACGUUGC | -1.17 ± 0.33 |  |
| UGCUAGCAAUAUUACGAAAC | -2.17 ± 0.31 | -2.87 ± 0.33 |
| UGCUAGCAAUAUUACGACAC | -2.11 ± 0.16 | -3.83 ± 0.22 |
| UGCUAGCAAUAUUACGAGCU | -0.622 ± 0.082 | -0.987 ± 0.068 |
| UGCUAGCAAUAUUACGAGUC | -2.5 ± 0.28 | -3.43 ± 0.26 |
| UGCUAGCAAUAUUACGAUUU | -1.1 ± 0.16 | -2.4 ± 0.18 |
| UGCUAGCAAUAUUACGCCUG | 0.294 ± 0.2 | -0.427 ± 0.18 |
| UGCUAGCAAUAUUACGCGUU | -0.563 ± 0.14 | -1.7 ± 0.14 |
| UGCUAGCAAUAUUACGCUAA | -1.55 ± 0.16 | -1.85 ± 0.13 |
| UGCUAGCAAUAUUACGGACC | -1.06 ± 0.22 | 0.158 ± 0.22 |
| UGCUAGCAAUAUUACGGCCA | -0.178 ± 0.15 | -0.186 ± 0.11 |
| UGCUAGCAAUAUUACGGGAU | -1.76 ± 0.14 | -3.68 ± 0.19 |
| UGCUAGCAAUAUUACGGGCU | -1.89 ± 0.14 | -2.57 ± 0.13 |
| UGCUAGCAAUAUUACGGUGG | -1.33 ± 0.086 | -1.94 ± 0.066 |
| UGCUAGCAAUAUUACGUAAA | -1.6 ± 0.13 | -1.9 ± 0.094 |
| UGCUAGCAAUAUUACGUAAG | -1.35 ± 0.18 | -2.3 ± 0.19 |
| UGCUAGCAAUAUUACGUCAC | -2.74 ± 0.22 | -3.62 ± 0.19 |
| UGCUAGCAAUAUUACGUCCA | -0.404 ± 0.09 | -0.211 ± 0.06 |
| UGCUAGCAAUAUUACGUCCC | -0.521 ± 0.12 | -3.34 ± 0.18 |
| UGCUAGCAAUAUUACGUUAU | -2.33 ± 0.23 | -2.22 ± 0.16 |
| UGCUAGCAAUAUUACGUUUG | -0.163 ± 0.092 | -1.48 ± 0.074 |

| Sequence | self-splicing fitness (ln) (37 °C) | self-splicing fitness (ln) (30 °C) |
| --- | --- | --- |
| UGGAAGCAAUAUUACGAGAA | -1.73 ± 0.3 | -2.05 ± 0.43 |
| UGGAAGCAAUAUUACGAGCG | 0.127 ± 0.15 | 0.103 ± 0.11 |
| UGGAAGCAAUAUUACGAUAG | -0.419 ± 0.17 | -2.51 ± 0.2 |
| UGGAAGCAAUAUUACGAUUC |  | -3.18 ± 0.3 |
| UGGAAGCAAUAUUACGCAAC | -2.05 ± 0.27 | -3.31 ± 0.32 |
| UGGAAGCAAUAUUACGCUGU | -2.3 ± 0.49 | -2.58 ± 0.41 |
| UGGAAGCAAUAUUACGCUUA | 0.125 ± 0.15 | -1.39 ± 0.13 |
| UGGAAGCAAUAUUACGGAUG | -0.832 ± 0.12 | -0.948 ± 0.098 |
| UGGAAGCAAUAUUACGGCGC | -0.241 ± 0.22 | -1.23 ± 0.22 |
| UGGAAGCAAUAUUACGGGGA | -2.16 ± 0.16 | -2.19 ± 0.15 |
| UGGAAGCAAUAUUACGUACU | -0.023 ± 0.098 | -0.516 ± 0.094 |
| UGGAAGCAAUAUUACGUCCU | -0.584 ± 0.21 | -0.91 ± 0.2 |
| UGGAAGCAAUAUUACGUGGC | -2.71 ± 0.33 | -3.41 ± 0.25 |
| UGGAAGCAAUAUUACGUUGA | -2.01 ± 0.2 | -2.36 ± 0.17 |
| UGGCAGCAAUAUUACGAACA | 0.139 ± 0.13 | -0.346 ± 0.11 |
| UGGCAGCAAUAUUACGACAU | -0.812 ± 0.033 | -1.746 ± 0.014 |
| UGGCAGCAAUAUUACGACCG | -0.245 ± 0.42 | -0.969 ± 0.27 |
| UGGCAGCAAUAUUACGACGA | -0.159 ± 0.14 | -0.192 ± 0.12 |
| UGGCAGCAAUAUUACGAGCA | -0.218 ± 0.12 | -0.315 ± 0.098 |
| UGGCAGCAAUAUUACGAGUG | 0.196 ± 0.12 | -1.19 ± 0.11 |
| UGGCAGCAAUAUUACGAUCG | 1.02 ± 0.1 | 0.335 ± 0.067 |
